From the DeepSol protein solubility set

Assay: soluble on expression in E. coli; label from the status in PepcDB or PDB records

| Sequence | soluble on expression in E. coli |
| --- | --- |
| GSHMTNVTGDYTDCTPLLGDRAALDSFYEEHGYLFLRNVLDRDLVKTVAEQMREGLVALGAADPHATLEELTIDSFESVDEVAMHDYVKYDAFWNNPSTIKVFEQVFGEPVFVFLSTTIRYYPSQAGSEEPSFHYLTPFHQDGFYIGPNQDFRTFWIPLIRTTRESGGVALADGSHRRGKRDHVLNESFRRFGHPVRGIPPTEVSEDEHLLHSPMEPGDILLFHAHMCHKSIPNLSKDPRLMRMSMDTRVQPAKSHRGFNAMTPWTESAKDASKGIMAKITGTPTDVE | soluble |
| MGSDKIHHHHHHMSEAPHLTFDLDTPGVSTGHLVVPKGADCEALSLPVFSCNRGEGPSLLITGGNHGNELQGPILARRLVKWLPEAQRCGRIIIVPEINPLAVQAWTRNTPIDGKNLNRVFPGRSDGSVSERIADAISRLLLPVVDTVLDLHSFGPTWDCAPSIISHPIADIDQMTKTVSISKAFKLPVTLLWEHNETDGMFDTLVHRQGKTFICTEFGGGVVSAEALTIYEAGVRNGLIALGLVKGKAEYPTFRQQKTGQTLETTSSDQLKSPSPGIFEPRCSVMDEVEQGDVVGVLHPMGSLSAASIDIRAQSKSTVFAIRSAMYVQGNEEVAILARPLAR | not soluble |
| MGSDKIHHHHHHAGELNLYSMNTGSYVYHMTGNHGQYNEHFNNNFFSVERKFSQDSKYSVLVGTMKNSFDDRCLTLGVRRDWLKNDTGWVLKGVYAYTGEFFFDAFSHCGDSGTYRTAKKITGIGFSPYLYHGLQYNFTDYFGVEGGIIVPAIFVMSVQWSFR | not soluble |
| MAHHHHHHMGKRDLQKEKQQELAAIWGSEVQGDARFPKRRRAAQKQGLGAVENNDDVDTDVLSDIVSDAGSITSKHSDTAKKETRKTAKKKSTNYRLHCFVEPGTELNAVRTVFEAYEPKVEIRTAQKGNLLNKSQFAVLTFRNKAMALHAVKKLDGTNQRDLLGVSSLKLNLMLTRQQSKIARKTFNRKIRQEKERNQLMEEQADLAFIRNFLKQHSGAKKDKQNGKALSLS | soluble |
| MLATPGRFFEKFQKMDKVYRRFYQHELAEYQFTPNEIAVILFLYNNAPDLDTATDIVRCKGISKGLVARSVDSLCREGYLTAVREPADRRIMHLKLSEKSRPITERIAVKQKELAGKIECGITPEELRITSATLDKLLINTEQLLKGKENHAE | soluble |
| MSLQLRHNRTLLENLADRQTMALQQFVDGDIHFIGSAANFFRSSTSDDWVRFHTFAEETLKGSQSLIALQWLVKVEPPQAETFTARMQQRFPEFTLYTVPKTGEIKYGFGTDDQAKYVLSDIYPLNYDNRKLLGFYSERERFKRILADIVVNRRPNVSDKVRLLQDGIDKSIVKDGMLVYHPVFSSEDDRSLLGVMVGVVRLSTYFEKLVQISVMEQDLDMRVIDTGFDSEDSPVLYQSPMWRADDEPKIERKLVLPNRDWVLEFELHQPINHSEELEHHHHHH | soluble |
| MRIMGLDVGSKTVGVAISDPLGFTAQGLEIIKIDEEKAEFGFTRLEELVKQYQVEQFVIGLPKNMNNTNGPRVDASITYGNHIEHLFGLPVHYQDERLTTVEAERMLIEQADISRGKRKKVIDKLAAQLILQNYLNRNFLEHHHHH | soluble |
| MSLTVRQLASLTRGAVRTLATDGAVAVLPIGAVEQHGDHLPLGTDFLLVEAVCDRAMQQLEDDRTTWVRVPTMTFGHSPHHLFAAAVSLQAGTLTDVLADVLDSLAQTGFRRIVIVNGHGGNDELVRLAVKAHSLHAEGTAAACSYWTLTAQTTAEAAATERPDRTPGHAGWFETSLMLAVHPELVADDRPFTPSDPPPLFNRSPAPGLTVERHGEWPRVGGTTDDAREASAETGRLLLGRRVAGLVAALQSLDRATATPPAASVPSTDRERGPQAEGHHHHHH | not soluble |
| MILRASVLSALLLVGLGAAPKHSVSANDKRMQDNLVSVIEKQTNKKVRILEIKPLKSSQDLKMVVIEDPDTKYNIPLVVSKDGNLIIGLSNIFFSNKSDDVQLVAETNQKVQALNATQQNSAKLNAIFNEIPADYAIELPSTNAANKDKILYIVSDPMCPHCQKELTKLRDHLKENTVRMVVVGWLGVNSAKKAALIQEEMAKARARGASVEDKISILEKIYSTQYDINAQKEPEDLRTKVENTTKKIFESGVIKGVPFLYHYKA | not soluble |
| MSLDQIKIAYIGGGSQGWARSLMSDLSIDERMSGTVALYDLDFEAAQKNEVIGNHSGNGRWRYEAVSTLKKALSAADIVIISILPGSLDDMEVDVHLPERCGIYQSVGDTVGPGGIIRGLRAVPIFAEIARAIRDYAPESWVINYTNPMSVCTRVLYKVFPGIKAIGCCHEVFGTQKLLAEMVTERLGIEVPRREDIRVNVLGINHFTWITKASYRHIDLLPIFREFSAHYGESGYELEGECWRDSVFCSAHRVAFDLFETYGAIPAAGDRHLAEFLPGPYLKQPEVWKFHLTPISFRKQDRAEKRQETERLIVQQRGVAEKASGEEGVNIIAALLGLGELVTNVNMPNQGQVLNLPIQAIVETNAFITRNRVQPILSGALPKGVEMLAARHISNQEAVADAGLTKDTGLAFQAFLNDPLVQIDRSDAEQLFNDMLQCIMQSEGHHHHHH | soluble |
| MSRPLGFIGYEFGDDEMFVQQMIEKKSNAEQAKMLEQQKKMLECTETMPEESEPVPMKCLDFEEAFQSESVSKGYESPYKNISFLKEDAVTVNTMSHCPADDIAKLIRNIQNSVYTLGIEEARQCRRGKLLNVLKPTGSASPRYLQPTPPKNVAEETTGSQ | not soluble |
| MVFFSVVVPTYNRRPILEKCLRALEQQQISAETAIAGYEVVVVDDGSTDGTVDWLKAQASEFPHVRLFEQDHQGPARARNLGVQQAQGDTIIFIDSDLVVTPPFLQAHATGLEKGRQRLGSDRCFTYGAVINTCNFDNPTAEPFKVTDFSNAYFATGNVAIARHWLETAGLFDTAFQLYGWEDLELGVRLKNLGLKLIRCPEAVGYHWHPPFSLEQIPKLIDQESQRGRMGVLFYQKHPTWEVRLMIQMTWLHRLLWGTLSLGGFLNERTLRPLLAWLLKRDRPQLALEIARIFLNWNNVRSVYAAYRESQGLASSLEHHHHHH | soluble |
| WAALHEGLNIRQAEVHGMSQRGGAVQSHLRISDQELFADLIGLGTGDLILSVEPLEALRYLPYLAPDGRIVTSLDPFVNMTGYPPMEEIEAELGKTGRPVLVHAADLAKDAGSARASNMVMLGAGAPFAGIAPSKLEASIEALFSTKGQEVVDINIRAFRKGLQL | not soluble |
| MKKHHHHHHEDFHGIDIVINHRLKTSLEEGKVLEKTVPDLNNCKENYEFLIKWTDESHLHNTWETYESIGQVRGLKRLDNYCKQFIIEDQQVRLDPYVTAEDIEIMDMERERRLDEFEEFHVPERIIDSQRASLEDGTSQLQYLVKWRRLNYDEATWENATDIVKLAPEQVKHFQKK | soluble |
| MTQQLVKKGQQISLKIKRLGINGEGIGYYKKLIIFVPGALPKEEVTATITNVTPKFAEGTLQSVKKAAKDRVVPPCPVYETCGGCQLQHLAYKAQLDFKKDLLKQALNKFKPANYQNYELRKTIGMDNPWNYRNKAQFQLRQIDGQVEAGLYQADSHQLVPIDNCLVQQPATTKVMNTLVDLLNDFQLPIYDERKNSGIFRTLMVRVGIQTGEVQVVFITQSQKFPQKEKMVRAINEQLPEVVSIMQNVQNKKTSLVMGDDTLHLWGKESIEEHINDVVFDLSPRAFFQLNPEQTEVLYNEGIKALDLQPNETVVDAYCGVGTIGLSLAKQAHQVRGMDTIPAAIDDARFNAKRLGVTNTHYAVGTAEDLLPKWFKEGFKPDAIVVDPPRTGLDRKLLTALLKQPPKKMVYISCNVSTLARDLVQLAKVYQVDYLQSVDMFPQTARCEVVVKLTRK | not soluble |
| MIFINREREMKILEKEWENRPSFVVLYGRRRVGKTRLLREFSKAKKTFFFVFPEAIKEIQMREFKDAMADFLGDEFIRKLKTDNWFDLLKYLAEEVDDCLIVLDEFTYAVKSDRKILSDLQRVWDIILSEKKVMLVLSAPLLGMMWDEVLSHASPLYGRRTRSMHLKPLNYPDALNFFSDWEFGIRAYMLVGGIPSYLKLASRYNTIEDFLREEFLSDYGFFYDEPYVLLSEELRELRTYFSILIAIAEGNRRLERIANFVGLPARSIYPYVETLMRLGFIEKESPILGSRKVSLYRIKDPMLLTWLTLTYPQMAEISSGTAKLDKLYRVYSIRFEELAKEFLTLFRPIEFKTLGRWWYRGEEIDIVAIDEDIANLIEVKWMDLRKKEALRVLQELEEKAKKVNFSGKINLGIVARNVEKKEELRKEGYLVWDLEDILEAAGNSEREKLLEHHHHHH | not soluble |
| MAWPDLDPPRLAERPLSLQEALFVLEAPPEALPALAEAAIRVKEYFFGRRLKLVRLLNVKSGFCPEDCAYCAQSARSQAAIARYPLLSLEEILERAEEAQRLSARRFCLVAALRGPTPKVLERLGEAAQAIKARFPLELCASLGLLEEGMAEALKAAGFDYYNHNLNTVPSLYPRIATTHTYQDRLWTLKRAREAGLKLCSGVILGMGEGPKEVYEMALALRELGVESLPVNFLLPIPGTPLGDGRTVAGLTPERALKALILFRLLNPKAELRASAGRERYLGPYEPLAFRMVNSIFLQGYLTQPGSPWERDRALWESLDLDVEEGACG | soluble |
| MGSDKIHHHHHHMNNINEKSTYHHGDLRETLLVVATEMLQENGIKEVSLRKLASRVGVSRTAPYHHFKDKNALLCGMAEKGFEQLHQINKCGYEDGELSIREHFYRFIHDYIQFAHNNPDLYELMFGRTIWKDKSSTQELRDSAYPCFQFQVAMTQEWQKKGLFNVDDNALRVSQVLWGTVHGIAKLFIDGIYTDNSKIDEICDYAVSMFLSNSKK | not soluble |
| MDDSDDEYSRSHGETLTFVDPEDDGVSIGNTQDSQFAYEQFSVPTQSSQATDLLPGGTDGTTNDLPFHDVEDDESDSEKSLTEEQQQQKLPEHACRYCGISDPLCVAKCTVCRKWFCNSNDGTSGGHIVHHMVRSQHKEAYTHKDSPCGDTQLECYRCGSKNVFNLGFIPGKKDQVVVIICRTPCASIAFQNDDNWSPEDWKSVIAEKQLLSWIVNVPSEEQVARARKITATQAVRMEELWRDHPEATVDDLNKPGLDREPDHVQLRYVDAHHYSKVFRPLVAIEAEYDRRVKESASQAVGTVRWEQGLRQSVLAFFHLPQFADGVMKLAKGDELRLKHSQTVDGSEWTKIGSVFKIPDNHGDEVGIEIRGAVDKSVMESRIMFTVDVVWNATTFERQYKALAALLNDSKAISPYLYQKLLGHPAEEMMLKFDLPRRLSVAGLPELNSSQMQAVKQVLTRPLSLIQGPPGTGKTVVSATIVYHLVQKTEGNVLVCSPSNIAVDHLAEKIHKTGLKVVRLCARSREHSETTVPYLTLQHQLKVMGGAELQKLIQLKDEAGELEFKDDLRYMQLKRVKEHELLAAADVICCTCSSAADARLSKIRTRTVLIDESTQATEPEILVSIMRGVRQLVLVGDHCQLGPVVICKKAAIAGLSQSLFERLVLLGIRPFRLQVQYRMHPVLSEFPSNVFYDGSLQNGVTENDRHMTGVDWHWPKPNKPAFFWHCSGSEELSASGTSFLNRTEAANVEKLVSKLIKAGVQPHQIGVITPYEGQRSFIVNYMHTQGTLNSKLYENVEIASVDAFQGREKDYIIVTCVRSNDILGIGFLSDPRRLNVAITRAKYGLVLVGNAKVLARHDLWHELINHYKSKEMLYEGPINALKPLNLALPKATIRTKNNIAGNANRFGIKRMQYTFNEYKSNDPSQPRLPPTYSNSQNLLSMSKLAQTFNKNVPIPAHMMDPNVYAAARNQKDRRRGDQRRPPPQAEAAMDLSQGMMSQQSQQYPPQGASSQSQYLLDGASSLSGWSQSQTTTTTTRHHHHRQNRNSQQQMSQDMDDIQQKMDDLLFSQDC | not soluble |
| DLREVLDFMLKDEVSKLRKLLVKIKTKKIAEVEYENVVKALKLFKDNYEINEYLMDENTKEFLIKRNILFLNPVEEILKPQSYLVWNAIKRVLQNINDF | soluble |
